According to the supplement of paper PMC10567573:

B1: LOXL2 (parent)
chain: RLLRFSSQIHNNGQSDFRPKNGRH
B2: EPB41L3 (parent)
chain: KKFLTLGSKFRYSGRTQAQTRRAS
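Also: lentivirally expressed fusions sorted by FACS into six bins by GFP to DsRed ratio, PSI derived from sequencing read proportions per bin multiplied by bin number.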

Variants of: B1
Test: protein stability index of a GFP-peptide fusion (GPS, HEK-293T) (PSI 1-6); higher = more stable
Details: c terminus: a fixed tail appended
With P19K the protein stability index was 2.71.
P19T showed a protein stability index of 2.32.
Variant P19H has a protein stability index of 2.54.
Work on P19R yielded a protein stability index of 2.41.
With P19Q the protein stability index was 2.7.
With P19S the protein stability index was 2.98.
P19L showed a protein stability index of 2.54.
With P19M the protein stability index was 2.21.
For P19V, the protein stability index was 2.04.
With P19W the protein stability index was 2.76.
Work on P19I yielded a protein stability index of 2.58.
With P19Y the protein stability index was 2.37.
P19N showed a protein stability index of 2.84.
For R23F, the protein stability index was 1.84.
In the case of R23T, the protein stability index is reported as 3.29.
For R23K, the protein stability index was 2.8.
For R23Q, the protein stability index was 2.4.
Variant R23P has a protein stability index of 2.46.
R23M gave a protein stability index of 1.84.
In the case of R23H, the protein stability index is reported as 2.36.
R23S gave a protein stability index of 3.14.
R23I gave a protein stability index of 1.82.
Variant R23N has a protein stability index of 3.03.
For R23V, the protein stability index was 2.41.
With R23D the protein stability index was 2.99.
R23L showed a protein stability index of 2.04.
With R23A the protein stability index was 2.36.
For R23Y, the protein stability index was 2.61.
R23G showed a protein stability index of 2.71.
Variant R23E has a protein stability index of 3.2.
With R23W the protein stability index was 1.91.
Variant R23C has a protein stability index of 1.97.
Variant G22Y has a protein stability index of 2.71.
G22T gave a protein stability index of 2.39.
G22R showed a protein stability index of 2.47.
Variant G22D has a protein stability index of 2.94.
In the case of G22S, the protein stability index is reported as 3.02.
G22K showed a protein stability index of 2.62.
Variant G22I has a protein stability index of 2.19.
G22A showed a protein stability index of 2.57.
In the case of G22L, the protein stability index is reported as 2.49.
Work on G22M yielded a protein stability index of 2.27.
Work on G22W yielded a protein stability index of 2.22.
G22V showed a protein stability index of 2.01.
In the case of G22P, the protein stability index is reported as 2.7.
With G22C the protein stability index was 2.4.
With G22E the protein stability index was 2.4.
G22H showed a protein stability index of 2.4.
G22F showed a protein stability index of 2.11.
In the case of G22N, the protein stability index is reported as 2.58.
For G22Q, the protein stability index was 2.89.
With N21S the protein stability index was 2.33.
Variant N21D has a protein stability index of 2.93.
For N21W, the protein stability index was 1.52.
In the case of N21T, the protein stability index is reported as 2.37.
For N21A, the protein stability index was 2.82.
N21L showed a protein stability index of 2.17.
Work on N21K yielded a protein stability index of 2.85.
With N21M the protein stability index was 2.27.
Work on N21C yielded a protein stability index of 2.13.
In the case of N21Q, the protein stability index is reported as 2.71.
Variant N21F has a protein stability index of 2.04.
N21R showed a protein stability index of 2.62.
With N21Y the protein stability index was 1.77.
N21H gave a protein stability index of 2.23.
For N21I, the protein stability index was 1.79.
Work on N21V yielded a protein stability index of 2.41.
Variant N21P has a protein stability index of 2.4.
In the case of N21G, the protein stability index is reported as 2.49.
Variant N21E has a protein stability index of 2.97.
Work on H24A yielded a protein stability index of 2.88.
Work on H24N yielded a protein stability index of 2.89.
H24V gave a protein stability index of 2.52.
In the case of H24P, the protein stability index is reported as 2.95.
With H24D the protein stability index was 2.86.
For H24Q, the protein stability index was 3.16.
With H24F the protein stability index was 2.38.
In the case of H24C, the protein stability index is reported as 2.14.
H24I showed a protein stability index of 2.54.
Variant H24K has a protein stability index of 3.5.
In the case of H24W, the protein stability index is reported as 2.83.
With H24R the protein stability index was 2.74.
Variant H24Y has a protein stability index of 2.67.
Work on H24L yielded a protein stability index of 2.47.
H24M showed a protein stability index of 2.68.
Variant H24S has a protein stability index of 3.
H24T showed a protein stability index of 2.76.
For H24E, the protein stability index was 3.12.
H24G showed a protein stability index of 3.2.
Work on K20Q yielded a protein stability index of 2.54.
Work on K20T yielded a protein stability index of 3.01.
K20H showed a protein stability index of 2.6.
K20L gave a protein stability index of 1.89.
In the case of K20F, the protein stability index is reported as 2.22.
K20I gave a protein stability index of 2.17.
Variant K20P has a protein stability index of 2.47.
K20Y gave a protein stability index of 2.23.
K20G showed a protein stability index of 2.79.
In the case of K20M, the protein stability index is reported as 1.92.
K20N gave a protein stability index of 2.92.
K20W showed a protein stability index of 2.08.
Variant K20A has a protein stability index of 2.49.
In the case of K20V, the protein stability index is reported as 2.35.
For K20D, the protein stability index was 2.91.
Variant K20S has a protein stability index of 2.78.
K20E showed a protein stability index of 3.45.
Work on K20C yielded a protein stability index of 2.35.
In the case of K20R, the protein stability index is reported as 2.78.

Variants of: B2
Test: as above
Details: c terminus: a fixed tail appended
In the case of T5A, the protein stability index is reported as 3.78.
T5Q showed a protein stability index of 3.38.
T5R showed a protein stability index of 3.06.
T5K showed a protein stability index of 3.39.
Variant T5E has a protein stability index of 2.96.
With T5N the protein stability index was 3.47.
Variant T5I has a protein stability index of 2.27.
Work on T5D yielded a protein stability index of 1.62.
Work on T5Y yielded a protein stability index of 1.88.
Work on T5F yielded a protein stability index of 1.84.
Variant T5W has a protein stability index of 1.56.
T5G showed a protein stability index of 3.25.
For T5C, the protein stability index was 2.21.
Variant T5H has a protein stability index of 2.82.
In the case of T5S, the protein stability index is reported as 3.05.
Work on T5M yielded a protein stability index of 2.74.
T5P gave a protein stability index of 2.67.
With R15A the protein stability index was 3.32.
R11V showed a protein stability index of 3.17.
R11S gave a protein stability index of 3.4.
For R11K, the protein stability index was 2.92.
R11N gave a protein stability index of 2.63.
With R11P the protein stability index was 3.08.
For R11C, the protein stability index was 3.96.
Variant R11A has a protein stability index of 3.11.
R11I gave a protein stability index of 2.89.
In the case of R11T, the protein stability index is reported as 3.6.
R11D showed a protein stability index of 4.24.
For R11L, the protein stability index was 2.43.
Variant R11F has a protein stability index of 2.48.
Work on R11G yielded a protein stability index of 3.57.
R11H gave a protein stability index of 3.7.
Work on G14N yielded a protein stability index of 3.67.
Variant G14I has a protein stability index of 2.44.
G14Y gave a protein stability index of 3.03.
With G14A the protein stability index was 3.42.
G14W gave a protein stability index of 4.87.
With G14R the protein stability index was 3.38.
G14S showed a protein stability index of 3.34.
G14M gave a protein stability index of 3.71.
G14Q showed a protein stability index of 3.56.
G14D gave a protein stability index of 2.81.
In the case of G14K, the protein stability index is reported as 3.1.
With G14C the protein stability index was 2.06.
In the case of G14L, the protein stability index is reported as 4.04.
Work on G14H yielded a protein stability index of 3.57.
For G14F, the protein stability index was 2.56.
Variant G14T has a protein stability index of 3.81.
Work on G14E yielded a protein stability index of 3.75.
G14P gave a protein stability index of 3.46.
G14V showed a protein stability index of 2.96.
Work on F10P yielded a protein stability index of 4.07.
In the case of F10M, the protein stability index is reported as 3.59.
Variant F10I has a protein stability index of 3.63.
Variant F10D has a protein stability index of 3.88.
With F10N the protein stability index was 3.59.
For F10T, the protein stability index was 3.54.
Variant F10S has a protein stability index of 4.22.
For F10Y, the protein stability index was 3.21.
